Assay results: patent US20150203577A1 (Chugai, published 2015)
Changes are numbered by the printed parent chain.

B1: H237-MB754/MRAL-k0 (antibody, mouse IgG1, kappa)
heavy: QVQLQESGPGLVKPSETLSLTCAVSGHSISHDHAWSWVRQPPGEGLEWIGFISYSGITNYNPSLQGRVTISRDNSKNTLYLQMNSLRAEDTAVYYCARSLARTTAMDYWGEGTLVTVSSAKTTPPSVYPLAPGSAAQTNSMVTLGCLVKGYFPEPVTVTWNSGSLSSGVHTFPAVLQSDLYTLSSSVTVPSSTWPSETVTCNVAHPASSTKVDKKIVPRDCGCKPCICEPNEVELVFIFPPKPKDVLTITLTPKVTCVVVDISKDDPEVQFSWFVDDVEVHTAQTQPREEQFNSTFRSVSELPIMHQDWLNGKEFKCRVDSAAFPAPIEKTISKTKGRPKAPQVYTIPPPKEQMAKDKVSLTCMITDFFPEDITVEWQWNGQPAENYKNTQPIMDTDGSYFVYSKLNVQKSNWEAGNTFTCSVLHEGLHNHHTEKSLSHSPGK
light: not shown
notes: copies: 2 + 2
B2: H237-MB779/MRAL-k0 (antibody, mouse IgG1, kappa)
heavy: B1 heavy with D320N, S333W
light: not shown
notes: copies: 2 + 2
B3: H237-MB787/MRAL-k0 (antibody, mouse IgG1, kappa)
heavy: B1 heavy with Q291L, A322D
light: not shown
notes: copies: 2 + 2
B4: H237-MB783/MRAL-k0 (antibody, mouse IgG1, kappa)
heavy: B1 heavy with Q291L, D320N, A322D
light: not shown
notes: copies: 2 + 2
B5: H237-MB780/MRAL-k0 (antibody, mouse IgG1, kappa)
heavy: B1 heavy with D320N, A323G
light: not shown
notes: copies: 2 + 2
B6: H237-MB760/MRAL-k0 (antibody, mouse IgG1, kappa)
heavy: B1 heavy with S294L, K330R
light: not shown
notes: copies: 2 + 2
B7: H237-MB785/MRAL-k0 (antibody, mouse IgG1, kappa)
heavy: B1 heavy with A322D
light: not shown
notes: copies: 2 + 2
B8: H237-MB782/MRAL-k0 (antibody, mouse IgG1, kappa)
heavy: B1 heavy with Q291L
light: not shown
notes: copies: 2 + 2
B9: H237-MB773/MRAL-k0 (antibody, mouse IgG1, kappa)
heavy: B1 heavy with D320N, E329Y
light: not shown
notes: copies: 2 + 2
B10: H237-MB789/MRAL-k0 (antibody, mouse IgG1, kappa)
heavy: B1 heavy with Q291L, D320N, A322D, K330R
light: not shown
notes: copies: 2 + 2
B11: H237-MB784/MRAL-k0 (antibody, mouse IgG1, kappa)
heavy: B1 heavy with Q291L, D320N, K330R
light: not shown
notes: copies: 2 + 2
B12: H237-MB776/MRAL-k0 (antibody, mouse IgG1, kappa)
heavy: B1 heavy with D320N, T331Y
light: not shown
notes: copies: 2 + 2
B13: H237-MB770/MRAL-k0 (antibody, mouse IgG1, kappa)
heavy: B1 heavy with D320N, P327F
light: not shown
notes: copies: 2 + 2
B14: H237-MB790/MRAL-k0 (antibody, mouse IgG1, kappa)
heavy: B1 heavy with A322D, K330R
light: not shown
notes: copies: 2 + 2
B15: H237-MB808/MRAL-k0 (antibody, mouse IgG1, kappa)
heavy: B1 heavy with Q291L, D320N, A323G
light: not shown
notes: copies: 2 + 2
B16: H237-MB766/MRAL-k0 (antibody, mouse IgG1, kappa)
heavy: B1 heavy with D320M
light: not shown
notes: copies: 2 + 2
B17: H237-MB791/MRAL-k0 (antibody, mouse IgG1, kappa)
heavy: B1 heavy with Q291L, A322D, K330R
light: not shown
notes: copies: 2 + 2
B18: H237-MB788/MRAL-k0 (antibody, mouse IgG1, kappa)
heavy: B1 heavy with Q291L, K330R
light: not shown
notes: copies: 2 + 2
B19: H237-MB810/MRAL-k0 (antibody, mouse IgG1, kappa)
heavy: B1 heavy with Q291L, D320N, P327Y
light: not shown
notes: copies: 2 + 2
B20: H237-MB771/MRAL-k0 (antibody, mouse IgG1, kappa)
heavy: B1 heavy with D320N, P327Y
light: not shown
notes: copies: 2 + 2
B21: H237-MB761/MRAL-k0 (antibody, mouse IgG1, kappa)
heavy: B1 heavy with S294M, K330R
light: not shown
notes: copies: 2 + 2
B22: H237-MB756/MRAL-k0 (antibody, mouse IgG1, kappa)
heavy: B1 heavy with S294L, D320N, K330R
light: not shown
notes: copies: 2 + 2
B23: H237-MB759/MRAL-k0 (antibody, mouse IgG1, kappa)
heavy: B1 heavy with K330R
light: not shown
notes: copies: 2 + 2
B24: H237-MB807/MRAL-k0 (antibody, mouse IgG1, kappa)
heavy: B1 heavy with Q291L, D320M
light: not shown
notes: copies: 2 + 2
B25: H237-MB786/MRAL-k0 (antibody, mouse IgG1, kappa)
heavy: B1 heavy with D320N, A322D, K330R
light: not shown
notes: copies: 2 + 2
B26: H237-MB811/MRAL-k0 (antibody, mouse IgG1, kappa)
heavy: B1 heavy with Q291L, D320N, E329Y
light: not shown
notes: copies: 2 + 2
B27: H237-MB809/MRAL-k0 (antibody, mouse IgG1, kappa)
heavy: B1 heavy with Q291L, D320N, P327F
light: not shown
notes: copies: 2 + 2

Each binder was assayed against T1, mouse FcγRII extracellular domain, C-terminal His tag (mouse, UniProt P08101 30-210) (assay: SPR (Biacore T200), antibody captured on Protein L, mFcγR analyte).
T1 construct: also called mFcγRII; mFcgRII
T1 sequence: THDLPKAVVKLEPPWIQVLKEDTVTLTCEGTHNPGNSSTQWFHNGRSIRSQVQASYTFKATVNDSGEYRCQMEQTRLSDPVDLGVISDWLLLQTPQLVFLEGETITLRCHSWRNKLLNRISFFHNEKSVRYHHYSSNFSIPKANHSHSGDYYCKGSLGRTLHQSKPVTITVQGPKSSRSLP

| Binder | Kd | relative mFcγRII-binding activity (mIgG1 = 1) |
| --- | --- | --- |
| B1 | 10 nM | 21 fold vs H237-mIgG1/MRAL-k0 |
| B2 | 21 nM | 10 fold vs H237-mIgG1/MRAL-k0 |
| B3 | 5.45 nM | 38.5 fold vs H237-mIgG1/MRAL-k0 |
| B4 | 6.85 nM | 30.6 fold vs H237-mIgG1/MRAL-k0 |
| B5 | 10.4 nM | 20.2 fold vs H237-mIgG1/MRAL-k0 |
| B6 | 14.9 nM | 14.1 fold vs H237-mIgG1/MRAL-k0 |
| B7 | 8.43 nM | 24.9 fold vs H237-mIgG1/MRAL-k0 |
| B8 | 9.88 nM | 21.3 fold vs H237-mIgG1/MRAL-k0 |
| B9 | 16.5 nM | 12.7 fold vs H237-mIgG1/MRAL-k0 |
| B10 | 6.8 nM | 30.9 fold vs H237-mIgG1/MRAL-k0 |
| B11 | 14.3 nM | 14.7 fold vs H237-mIgG1/MRAL-k0 |
| B12 | 18.6 nM | 11.3 fold vs H237-mIgG1/MRAL-k0 |
| B13 | 15.7 nM | 13.3 fold vs H237-mIgG1/MRAL-k0 |
| B14 | 6.28 nM | 33.5 fold vs H237-mIgG1/MRAL-k0 |
| B15 | 7.19 nM | 29.2 fold vs H237-mIgG1/MRAL-k0 |
| B16 | 15 nM | 14 fold vs H237-mIgG1/MRAL-k0 |
| B17 | 5.23 nM | 40.1 fold vs H237-mIgG1/MRAL-k0 |
| B18 | 9.38 nM | 22.4 fold vs H237-mIgG1/MRAL-k0 |
| B19 | 10.1 nM | 20.8 fold vs H237-mIgG1/MRAL-k0 |
| B20 | 15.2 nM | 13.8 fold vs H237-mIgG1/MRAL-k0 |
| B21 | 15.7 nM | 13.4 fold vs H237-mIgG1/MRAL-k0 |
| B22 | 19.8 nM | 10.6 fold vs H237-mIgG1/MRAL-k0 |
| B23 | 6.21 nM | 33.8 fold vs H237-mIgG1/MRAL-k0 |
| B24 | 9.58 nM | 21.9 fold vs H237-mIgG1/MRAL-k0 |
| B25 | 7.73 nM | 27.2 fold vs H237-mIgG1/MRAL-k0 |
| B26 | 9.45 nM | 22.2 fold vs H237-mIgG1/MRAL-k0 |
| B27 | 11.1 nM | 19 fold vs H237-mIgG1/MRAL-k0 |

Biological target: T2, mouse FcγRIII extracellular domain, C-terminal His tag (mouse, UniProt P08508 31-215)
T2 construct: also called mFcγRIII; mFcgRIII
T2 chain: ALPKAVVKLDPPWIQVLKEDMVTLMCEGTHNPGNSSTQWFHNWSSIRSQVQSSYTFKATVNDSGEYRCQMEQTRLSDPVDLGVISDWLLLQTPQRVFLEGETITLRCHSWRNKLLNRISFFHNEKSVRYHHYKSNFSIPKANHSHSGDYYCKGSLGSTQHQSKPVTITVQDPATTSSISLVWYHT
Test: as above

| Binder | Kd | relative mFcγRIII-binding activity (mIgG1 = 1) |
| --- | --- | --- |
| B1 | 1130 nM | 0.2 fold vs H237-mIgG1/MRAL-k0 |
| B2 | 1610 nM | 0.2 fold vs H237-mIgG1/MRAL-k0 |
| B3 | 295 nM | 1 fold vs H237-mIgG1/MRAL-k0 |
| B4 | 378 nM | 0.7 fold vs H237-mIgG1/MRAL-k0 |
| B5 | 716 nM | 0.4 fold vs H237-mIgG1/MRAL-k0 |
| B6 | 1020 nM | 0.3 fold vs H237-mIgG1/MRAL-k0 |
| B7 | 577 nM | 0.5 fold vs H237-mIgG1/MRAL-k0 |
| B8 | 567 nM | 0.5 fold vs H237-mIgG1/MRAL-k0 |
| B9 | 1310 nM | 0.2 fold vs H237-mIgG1/MRAL-k0 |
| B10 | 343 nM | 0.8 fold vs H237-mIgG1/MRAL-k0 |
| B11 | 734 nM | 0.4 fold vs H237-mIgG1/MRAL-k0 |
| B12 | 1430 nM | 0.2 fold vs H237-mIgG1/MRAL-k0 |
| B13 | 1170 nM | 0.2 fold vs H237-mIgG1/MRAL-k0 |
| B14 | 402 nM | 0.7 fold vs H237-mIgG1/MRAL-k0 |
| B15 | 359 nM | 0.8 fold vs H237-mIgG1/MRAL-k0 |
| B16 | 1060 nM | 0.3 fold vs H237-mIgG1/MRAL-k0 |
| B17 | 256 nM | 1.1 fold vs H237-mIgG1/MRAL-k0 |
| B18 | 475 nM | 0.6 fold vs H237-mIgG1/MRAL-k0 |
| B19 | 546 nM | 0.5 fold vs H237-mIgG1/MRAL-k0 |
| B20 | 1070 nM | 0.3 fold vs H237-mIgG1/MRAL-k0 |
| B21 | 1570 nM | 0.2 fold vs H237-mIgG1/MRAL-k0 |
| B22 | 1330 nM | 0.2 fold vs H237-mIgG1/MRAL-k0 |
| B23 | 646 nM | 0.4 fold vs H237-mIgG1/MRAL-k0 |
| B24 | 579 nM | 0.5 fold vs H237-mIgG1/MRAL-k0 |
| B25 | 493 nM | 0.6 fold vs H237-mIgG1/MRAL-k0 |
| B26 | 654 nM | 0.4 fold vs H237-mIgG1/MRAL-k0 |
| B27 | 638 nM | 0.4 fold vs H237-mIgG1/MRAL-k0 |
